{"source": "paper PMC6718402", "about": "“The structural basis of lipid scrambling and inactivation in the endoplasmic reticulum scramblase TMEM16K” (Nature Communications, 2019)", "molecular_target": "the molecule itself", "test": "crystal structure; TMEM16K purified in UDM/CHS, crystallised in lipidic cubic phase (MAG 7.9; 0.1 M MES pH 6.0, 0.1 M NaCl, 0.1 M CaCl2, 30% PEG300) and by sitting drop vapour diffusion (0.1 M HEPES pH 7.0, 0.1 M calcium acetate, 22% PEG400); open groove conformation", "data": [{"protein": "human TMEM16K (anoctamin-10), full length (natural protein, UniProt Q9NW15-1 1-660, looked up, The tag was removed with TEV protease before size exclusion, so residues of the TEV site may remain at the C-terminus; Modelled residues: Ser14-Gln639 (LCP crystal), Ser13-Lys641 (2 mM Ca2+ cryo-EM); the purification is described as similar to that for crystallisation (Sf9); also called hTMEM16K; ANO10; source: Sf9 cells (baculovirus), purified in UDM/CHS (Talon resin, TEV cleavage, Superose 6 …)) MKVTLSALDTSESSFTPLVVIELAQDVKEETKEWLKNRIIAKKKDGGAQLLFRPLLNKYEQETLENQNLYLVGASKIRMLLGAEAVGLVKECNDNTMRAFTYRTRQNFKGFDDNNDDFLTMAECQFIIKHELENLRAKDEKMIPGYPQAKLYPGKSLLRRLLTSGIVIQVFPLHDSEALKKLEDTWYTRFALKYQPIDSIRGYFGETIALYFGFLEYFTFALIPMAVIGLPYYLFVWEDYDKYVIFASFNLIWSTVILELWKRGCANMTYRWGTLLMKRKFEEPRPGFHGVLGINSITGKEEPLYPSYKRQLRIYLVSLPFVCLCLYFSLYVMMIYFDMEVWALGLHENSGSEWTSVLLYVPSIIYAIVIEIMNRLYRYAAEFLTSWENHRLESAYQNHLILKVLVFNFLNCFASLFYIAFVLKDMKLLRQSLATLLITSQILNQIMESFLPYWLQRKHGVRVKRKVQALKADIDATLYEQVILEKEMGTYLGTFDDYLELFLQFGYVSLFSCVYPLAAAFAVLNNFTEVNSDALKMCRVFKRPFSEPSANIGVWQLAFETMSVISVVTNCALIGMSPQVNAVFPESKADLILIVVAVEHALLALKFILAFAIPDKPRHIQMKLARLEFESLEALKQQQMKLVTENLKEEPMESGKEKAT", "values": [{"measurement": "stoichiometry N", "value": 2}]}]}
